Read-outs that look alike come from different tables or passages of the source.
Columns and labels:
Cdc13 = biological target: T1, Cdc13 (Saccharomyces cerevisiae, UniProt P32797 1-924); experiment: EMSA
T1 sequence: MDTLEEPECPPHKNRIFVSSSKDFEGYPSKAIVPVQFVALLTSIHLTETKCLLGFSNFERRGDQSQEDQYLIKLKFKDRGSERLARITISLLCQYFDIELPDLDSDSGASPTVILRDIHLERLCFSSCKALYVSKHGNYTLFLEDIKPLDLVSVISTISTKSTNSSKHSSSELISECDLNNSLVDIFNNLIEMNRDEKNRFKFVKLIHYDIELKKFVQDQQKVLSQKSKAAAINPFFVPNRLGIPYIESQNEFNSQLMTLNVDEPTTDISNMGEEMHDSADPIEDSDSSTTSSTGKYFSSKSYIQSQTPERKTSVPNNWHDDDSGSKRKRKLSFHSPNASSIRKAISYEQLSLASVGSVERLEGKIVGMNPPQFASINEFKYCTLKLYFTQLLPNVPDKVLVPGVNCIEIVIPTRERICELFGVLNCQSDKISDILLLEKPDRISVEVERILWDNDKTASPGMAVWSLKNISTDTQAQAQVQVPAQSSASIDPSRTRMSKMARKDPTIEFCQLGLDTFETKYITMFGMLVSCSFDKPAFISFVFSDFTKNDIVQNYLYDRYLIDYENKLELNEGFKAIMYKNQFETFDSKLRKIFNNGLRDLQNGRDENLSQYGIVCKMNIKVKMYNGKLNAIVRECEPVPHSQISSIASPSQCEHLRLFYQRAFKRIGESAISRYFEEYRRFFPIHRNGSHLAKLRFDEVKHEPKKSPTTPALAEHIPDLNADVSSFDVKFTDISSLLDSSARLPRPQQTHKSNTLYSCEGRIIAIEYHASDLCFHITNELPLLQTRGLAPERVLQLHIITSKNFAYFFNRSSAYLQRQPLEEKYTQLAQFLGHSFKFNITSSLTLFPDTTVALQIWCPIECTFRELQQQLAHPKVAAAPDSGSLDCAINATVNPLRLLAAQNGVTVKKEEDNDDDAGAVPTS

SpPot1-DBD [1] = biological target: T2, SpPot1-DBD (Schizosaccharomyces pombe, UniProt O13988 1-389); experiment: EMSA
T2 sequence: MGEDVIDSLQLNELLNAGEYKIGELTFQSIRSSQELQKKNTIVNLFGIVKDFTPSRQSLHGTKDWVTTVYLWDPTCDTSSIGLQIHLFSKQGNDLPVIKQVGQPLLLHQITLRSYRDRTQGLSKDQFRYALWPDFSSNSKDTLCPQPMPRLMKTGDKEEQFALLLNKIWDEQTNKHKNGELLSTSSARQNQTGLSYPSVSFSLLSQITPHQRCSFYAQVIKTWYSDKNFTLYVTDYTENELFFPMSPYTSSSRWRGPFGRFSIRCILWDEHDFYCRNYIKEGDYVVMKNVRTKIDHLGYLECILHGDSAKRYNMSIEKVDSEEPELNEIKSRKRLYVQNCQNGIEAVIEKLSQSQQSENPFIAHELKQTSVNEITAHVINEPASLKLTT

SpPot1-DBD [2] = biological target: T2, SpPot1-DBD; experiment: EMSA; remark: listed apart in the source
SpPot1-DBD [3] = biological target: T2, SpPot1-DBD; experiment: EMSA; remark: listed apart in the source
SpPot1-DBD [4] = biological target: T2, SpPot1-DBD; experiment: EMSA; remark: listed apart in the source
SpPot1 [5] = biological target: T3, SpPot1 (Schizosaccharomyces pombe, UniProt O13988 1-555)
T3 sequence: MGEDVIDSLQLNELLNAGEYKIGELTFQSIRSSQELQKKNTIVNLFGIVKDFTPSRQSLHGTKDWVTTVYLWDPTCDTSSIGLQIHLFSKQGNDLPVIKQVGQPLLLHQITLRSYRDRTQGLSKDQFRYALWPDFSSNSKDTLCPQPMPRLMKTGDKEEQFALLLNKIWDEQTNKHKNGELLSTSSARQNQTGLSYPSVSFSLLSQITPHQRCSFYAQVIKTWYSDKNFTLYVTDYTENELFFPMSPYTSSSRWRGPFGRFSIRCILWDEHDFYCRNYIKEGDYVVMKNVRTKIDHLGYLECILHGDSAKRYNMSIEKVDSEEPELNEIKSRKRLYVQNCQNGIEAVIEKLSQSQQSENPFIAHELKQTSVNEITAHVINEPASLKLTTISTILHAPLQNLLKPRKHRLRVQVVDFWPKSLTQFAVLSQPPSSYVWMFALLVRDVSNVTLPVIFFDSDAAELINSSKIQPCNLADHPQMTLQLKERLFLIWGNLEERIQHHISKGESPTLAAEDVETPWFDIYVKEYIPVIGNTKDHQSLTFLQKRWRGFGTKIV

SpPot1-DBD [6] = biological target: T2, SpPot1-DBD; experiment: EMSA; remark: listed apart in the source
SpPot1-DBD [7] = biological target: T2, SpPot1-DBD; experiment: EMSA; remark: listed apart in the source
SpPot1-DBD [8] = biological target: T2, SpPot1-DBD; experiment: EMSA; remark: listed apart in the source
SpPot1 [9] = biological target: T3, SpPot1; experiment: filter binding
SpPot1 [10] = biological target: T3, SpPot1; experiment: filter binding; remark: listed apart in the source
SpPot1 [11] = biological target: T3, SpPot1; experiment: filter binding; remark: listed apart in the source
SpPot1 [12] = biological target: T3, SpPot1; experiment: filter binding; remark: listed apart in the source
native gel or EMSA = biological target: the molecule itself; experiment: native gel or EMSA

B1: Tel11 (ssDNA)
DNA: GTGTGGGTGTG
With B1 the Kd (Cdc13) was 13.4 ± 0.8 pM.

B2: 15mer (ssDNA)
DNA: GGTTACGGTTACGGT
B2 gave a Kd (SpPot1-DBD [1]) of 1.6 pM, a Kd (SpPot1-DBD [2]) of 4.2 pM and a Kd (SpPot1-DBD [3]) of 4.9 ± 0.8 pM. The Kd (SpPot1-DBD [4]) was 10.3 pM, the Kd (SpPot1 [5]) was 5.2 ± 0.5 pM and the Kd (SpPot1-DBD [6]) was 1.5 pM. It also gave a Kd (SpPot1-DBD [7]) of 5 pM.

B3: d(GGTTA) 5mer (ssDNA)
DNA: GGTTA
For B3, the Kd (SpPot1-DBD [8]) was roughly 10000 pM.

B4: 12mer (ssDNA)
DNA: GGTTACGGTTAC
Work on B4 yielded a Kd (SpPot1 [9]) of 100 pM, a Kd (SpPot1 [10]) of 700 pM and a Kd (SpPot1 [11]) of 14 pM. For the same binder, the Kd (SpPot1 [12]) was 130 pM and the Kd (SpPot1 [5]) was 6.7 ± 0.9 pM.

B5: Saccharomyces cerevisiae Cdc13 (1–924), full-length protein (natural protein, UniProt P32797 1-924, looked up)
chain: MDTLEEPECPPHKNRIFVSSSKDFEGYPSKAIVPVQFVALLTSIHLTETKCLLGFSNFERRGDQSQEDQYLIKLKFKDRGSERLARITISLLCQYFDIELPDLDSDSGASPTVILRDIHLERLCFSSCKALYVSKHGNYTLFLEDIKPLDLVSVISTISTKSTNSSKHSSSELISECDLNNSLVDIFNNLIEMNRDEKNRFKFVKLIHYDIELKKFVQDQQKVLSQKSKAAAINPFFVPNRLGIPYIESQNEFNSQLMTLNVDEPTTDISNMGEEMHDSADPIEDSDSSTTSSTGKYFSSKSYIQSQTPERKTSVPNNWHDDDSGSKRKRKLSFHSPNASSIRKAISYEQLSLASVGSVERLEGKIVGMNPPQFASINEFKYCTLKLYFTQLLPNVPDKVLVPGVNCIEIVIPTRERICELFGVLNCQSDKISDILLLEKPDRISVEVERILWDNDKTASPGMAVWSLKNISTDTQAQAQVQVPAQSSASIDPSRTRMSKMARKDPTIEFCQLGLDTFETKYITMFGMLVSCSFDKPAFISFVFSDFTKNDIVQNYLYDRYLIDYENKLELNEGFKAIMYKNQFETFDSKLRKIFNNGLRDLQNGRDENLSQYGIVCKMNIKVKMYNGKLNAIVRECEPVPHSQISSIASPSQCEHLRLFYQRAFKRIGESAISRYFEEYRRFFPIHRNGSHLAKLRFDEVKHEPKKSPTTPALAEHIPDLNADVSSFDVKFTDISSLLDSSARLPRPQQTHKSNTLYSCEGRIIAIEYHASDLCFHITNELPLLQTRGLAPERVLQLHIITSKNFAYFFNRSSAYLQRQPLEEKYTQLAQFLGHSFKFNITSSLTLFPDTTVALQIWCPIECTFRELQQQLAHPKVAAAPDSGSLDCAINATVNPLRLLAAQNGVTVKKEEDNDDDAGAVPTS
For B5, the “stoichiometry N” value (native gel or EMSA) was 2.
